# Molecular target: HLA-A*02:01 (Homo sapiens, UniProt P04439, D140Y/D185E/D98H/E176V/E277Q/G131W/G231S/I119V/I121R/I166T/I218V/L300P/L318F/N151K/N90K/P208A/P217A/Q86G/Q94H/R138H/R169H/T345S)
# Assay: MHC binding assay: UV-ligand exchange with beta2m ELISA (exchange yield)
# Settings: binding to HLA-A*02:01, β2m ELISA
# Excerpt: Candidate peptides for T cell based therapies according to the present invention were further tested for their MHC binding capacity (affinity). The individual peptide-MHC complexes were produced by UV-ligand exchange, where a UV-sensitive peptide is cleaved upon UV-irradiation, and exchanged with the peptide of interest as analyzed. Only peptide candidates that can effectively bind and stabilize the peptide-receptive MHC molecules prevent dissociation of the MHC complexes. To determine the yield of the exchange reaction, an ELISA was performed based on the detection of the light chain (β2m) of stabilized MHC complexes. The assay was performed as generally described in Rodenko et al. (Rodenko et al., 2006).
# 96 well MAXISorp plates (NUNC) were coated over night with 2 ug/ml streptavidin in PBS at room temperature, washed 4× and blocked for 1 h at 37° C. in 2% BSA containing blocking buffer. […] Peptide-MHC monomers of the UV-exchange reaction were diluted 100 fold in blocking buffer. Samples were incubated for 1h at 37° C., washed four times, incubated with 2 ug/ml HRP conjugated anti-β2m for 1h at 37° C., washed again and detected with TMB solution that is stopped with […]. Absorption was measured at 450 nm. Candidate peptides that show a high exchange yield (preferably higher than 50%, most preferred higher than 75%) are generally preferred for a generation and production of antibodies or fragments thereof, and/or T cell receptors or fragments thereof, as they show sufficient avidity to the MHC molecules and prevent dissociation of the MHC complexes.
row,Substance,"Peptide exchange (MHC class I binding score, peptide exchange yield)"
1,447 (QLVPALAKV; listed as Homo sapiens) [compound 447],“++” (≥20% = ++)
2,398 (KLLEEDGTIITL; listed as Homo sapiens) [compound 398],“++” (≥20% = ++)
3,464 (ALNDCIYSV; listed as Homo sapiens) [compound 464],“+++” (≥50 = +++)
4,484 (SLIEKVTQL; listed as Homo sapiens) [compound 484],“+++” (≥50 = +++)
5,123 (NLWDLTDASVV; listed as Homo sapiens) [compound 123],“+++” (≥50 = +++)
6,382 (ALQNYIKEA; listed as Homo sapiens) [compound 382],“++” (≥20% = ++)
7,211 (LLWPGAALL; listed as Homo sapiens) [compound 211],“++” (≥20% = ++)
8,356 (KLLGKLPEL; listed as Homo sapiens) [compound 356],“+++” (≥50 = +++)
9,333 (FLPDANSSV; listed as Homo sapiens) [compound 333],“++” (≥20% = ++)
10,456 (LLIGHLERV; listed as Homo sapiens) [compound 456],“+++” (≥50 = +++)
11,278 (QLLDVVLTI; listed as Homo sapiens) [compound 278],“++” (≥20% = ++)
12,31 (YLAPELFVNV; listed as Homo sapiens) [compound 31],“++” (≥20% = ++)
13,74 (ALLDPEVLSIFV; listed as Homo sapiens) [compound 74],“+++” (≥50 = +++)
14,212 (ALWDQDNLSV; listed as Homo sapiens) [compound 212],“++” (≥20% = ++)
15,348 (ILLDVKTRL; listed as Homo sapiens) [compound 348],“++++” (≥75% = ++++)
16,364 (LLQNEQFEL; listed as Homo sapiens) [compound 364],“+++” (≥50 = +++)
17,388 (SLTIDGIRYV; listed as Homo sapiens) [compound 388],“+++” (≥50 = +++)
18,193 (QLLDADGFLNV; listed as Homo sapiens) [compound 193],“+++” (≥50 = +++)
19,29 (KMLGIPISNILMV; listed as Homo sapiens) [compound 29],“+++” (≥50 = +++)
20,59 (IMEDIILTL; listed as Homo sapiens) [compound 59],“+++” (≥50 = +++)
21,502 (RLLAQVPGL; listed as Homo sapiens) [compound 502],“+++” (≥50 = +++)
22,334 (TLTKVLVAL; listed as Homo sapiens) [compound 334],“+++” (≥50 = +++)
23,216 (NLWEDPYYL; listed as Homo sapiens) [compound 216],“+++” (≥50 = +++)
24,34 (ILVEADSLWVV; listed as Homo sapiens) [compound 34],“+++” (≥50 = +++)
25,257 (SIFSAFLSV; listed as Homo sapiens) [compound 257],“+++” (≥50 = +++)
26,7 (SLVGLLLYL; listed as Homo sapiens) [compound 7],“++++” (≥75% = ++++)
27,560 (ALWDIETGQQTTT; listed as Homo sapiens) [compound 560],“+++” (≥50 = +++)
28,322 (TLMTSLPAL; listed as Homo sapiens) [compound 322],“+++” (≥50 = +++)

# From US10280205B2, “Method for treating cancer with an activated T lymphocyte that selectively recognizes a cancer cell consisting of specific peptide” (immatics biotechnologies GmbH, priority 2015, dated 2019)
